Experimental data taken from paper PMC2172957.

Molecular target: neuronal receptor for agrin (mouse (endogenous in cortical neurons))
Experiment: immunostaining of cells or tissue

Substance: rC-Ag_(y4z8), soluble 95-kD COOH-terminal fragment of rat agrin (domain or fragment)
- reduction of C-Ag20z8 labeling at a 1:1 molar ratio of C-Ag20z8 to rC-Ag (y4z8): 30%
